Molecular target: human placental moesin (human, UniProt P26038 1-577)
Assay: far-Western, overlay or dot blot

B1: human moesin N-ERMAD (amino acids 1–296) (domain or fragment, UniProt P26038 1-296, looked up)
chain: MPKTISVRVTTMDAELEFAIQPNTTGKQLFDQVVKTIGLREVWFFGLQYQDTKGFSTWLKLNKKVTAQDVRKESPLLFKFRAKFYPEDVSEELIQDITQRLFFLQVKEGILNDDIYCPPETAVLLASYAVQSKYGDFNKEVHKSGYLAGDKLLPQRVLEQHKLNKDQWEERIQVWHEEHRGMLREDAVLEYLKIAQDLEMYGVNYFSIKNKKGSELWLGVDALGLNIYEQNDRLTPKIGFPWSEIRNISFNDKKFVIKPIDKKAPDFVFYAPRLRINKRILALCMGNHELYMRRRK
modifications: biotin (only where used as probe in blot overlays; site not stated)
binding result: binds

Reference: PMC2139813 (The Journal of Cell Biology, 1997)
